Legend:
[1] = tested on: ThHSF1 DBD (Trametes hirsuta AH28-2); assay: FP; conditions: 5x binding buffer pH 6.8 (25 mM HEPES, 5 mM MgCl2, 150 mM KCl, 1 mM DTT, 5% glycerol), EMSA 100 nM probe, 16 C 30 min, then 37 C 30 min, 6% native PAGE
[2] = molecular target: ThHSF1, heat shock transcription factor of Trametes hirsuta AH28-2 (full-length protein) (Trametes hirsuta AH28-2); assay: ITC; conditions: natural protein
[3] = molecular target: ThHSF1, heat shock transcription factor of Trametes hirsuta AH28-2 (full-length protein) (Trametes hirsuta AH28-2); assay: ITC; iTC200, 25°C; 50 mM Tris, 500 mM NaCl, pH 7.5; 5 µM ThHspA1 titrated against 1 µM ThHSF1
[4] = molecular target: ThHspA1, Hsp70 homolog of Trametes hirsuta AH28-2 (full-length protein) (Trametes hirsuta AH28-2); assay: dynamic light scattering; purified full-length ThHSF1 alone, ThHspA1 alone and the two together (Fig. S10); conditions not given
[5] = tested on: ThHSF1 full-length (Trametes hirsuta AH28-2); assay: FP; conditions: without ThHspA1, 5x binding buffer pH 6.8 (25 mM HEPES, 5 mM MgCl2, 150 mM KCl, 1 mM DTT, 5% glycerol), EMSA 100 nM probe, 16 C 30 min, then 37 C 30 min, 6% native PAGE
[6] = molecular target: ThHSF1 full-length;ThHspA1 full-length (Trametes hirsuta AH28-2;Trametes hirsuta AH28-2) (UniProt A0AAD7TN48); assay: FP; conditions: ThHspA1 added, 5x binding buffer pH 6.8 (25 mM HEPES, 5 mM MgCl2, 150 mM KCl, 1 mM DTT, 5% glycerol), EMSA 100 nM probe, 16 C 30 min, then 37 C 30 min, 6% native PAGE

Row | Substance | Kd [1] | further results
1 | AGTTCAGTATGTCTTGAAGATTATGCGGTCAGAAAC (double strand) [lacB promoter probe] | 5.46 µM | –
2 | TACGCCTAGAACTGACTTACATGCAA (double strand) [lacA mutant probe 4] | 5.2 µM | –
3 | ThHspA1, Hsp70 homolog of Trametes hirsuta AH28-2 (full-length protein) | – | Ka [2]: 1.16e+07 M⁻¹
4 | TACGCCTTAAACTGACTTACATGCAA (double strand) [lacA mutant probe 1] | 4.59 µM | –
5 | ThHspA1, Hsp70 homolog of Trametes hirsuta AH28-2 (full-length protein) (natural protein) | – | Kd [3]: 0.105 µM; stoichiometry N [4]: 6
6 | TACGCCAAGAACTGACTTACATGCAA (double strand) [lacA mutant probe 5] | 11.7 µM | –
7 | TTCGAACGCACCGAAACCATCCCGAACTTGGTCGAA (double strand) [lacF promoter probe] | 4.83 µM | –
8 | TACGCCTTATACTGACTTACATGCAA (double strand) [lacA mutant probe 2] | 14.7 µM | –
9 | TACGCCTTGAACTGACTTACATGCAA (double strand) [lacA promoter probe WT (26 bp)] | 0.961 µM | Kd [5]: 1.03 µM; Kd [6]: 0.673 µM

From article PMC12772356
